Data published in paper PMC9897460.

Experiments:
[1] = molecular target: 5FAM-PGC1α_144 coactivator peptide; experiment: fluorescence polarisation
[2] = molecular target: 5FAM-NRIP1_1068 peptide; experiment: fluorescence polarisation

## PPARγ ligand binding domain (LBD), delipidated (domain or fragment)
[1]
  Kd: 2.01 µM
[2]
  Kd: 8.24 µM
